Experimental data published in patent publication JP2012233002A.
pKd: −log10 of the molar value. Each block holds one substance with its values, some of them ahead of it.

Tests used:
[1] = molecular target: 凝集型Aβ1−42 (aggregated synthetic Aβ1-42) (human) (UniProt P05067); experiment: ELISA on aggregated synthetic Aβ1-42
[2] = molecular target: 可溶性Aβ1−42 (soluble synthetic Aβ1-42 sonicated in DMSO, 125I-labelled) (human) (UniProt P05067); experiment: capture radioimmunoassay, 50,000 CPM 125I-Aβ1-42 (or 125I-Aβ1-40)
[3] = molecular target: Aβ (β-amyloid peptide; length and physical form not specified in the assay) (human) (UniProt P05067); experiment: BIAcore (SPR)
[4] = molecular target: Aβ (β-amyloid peptide; length and physical form not specified in the assay) (human) (UniProt P05067); experiment: Biacore (SPR)

affinity (親和性) [1]: < 1 nM | percent of radioactive counts bound at 10 μg/ml antibody [2]: 2%
Substance: マウス10D5 (mouse monoclonal antibody 10D5)

pKd [3]: 9.06
Substance: マウス3D6 (mouse monoclonal antibody 3D6)

pKd [4]: 7.42
Substance: 組換えマウス12A11Cγ2a(アイソタイプスイッチ12A11) (antibody)
